Test results reported in the supplement of paper PMC7877785.
± gives the uncertainty stated by the source.

Experiment: self-splicing fitness, log relative to wild type (ln ratio); higher = more splicing; Tetrahymena group I intron in knt gene, E. coli kanamycin selection, DiMSum; sequences stand for … in CUCUCU…GGAGGGAAAAGUUAUCAGGCAUGCACCUGGUAGCUAGUCUUUAAACCAAUAGAUUGCAUCGGUUUAAAAGGCAAGACCGUCAAAUUGCGGGAAAGGGGUCAACAGCCGUUCAGUACCAAGUCUCAGGGGAAACUUUGAGAUGGCCUUGCAAAGGGUAUGGUAAUAAGCUGACGGACAUGGUCCUAACCACGCAGCCAAGUCCUAAGUCAACAGAUCUUCUGUUGAUAUGGAUGCAGUUCACAGACUAAAUGUCGGUCGGGGAAGAUGUAUUCUUCUCAUAAGAUAUAGUCGGACCUCUCCUUAAUGGGAGCUAGCGGAUGAAGUGAUGCAACACUGGAGCCGCUGGGAACUAAUUUGUAUGCGAAAGUAUAUUGAUUAGUUUUGGAGUACUCGUGGUCG
Method in brief: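 Library with all eight P1ex-region intron nucleotides randomised, intron inside the knt kanamycin-resistance gene on pET-22b(+), in E. coli BL21(DE3). Cells grew overnight at 37°C or 30°C on LB agar with or without 25 μg/mL kanamycin (plus 100 μg/mL carbenicillin, 50 μM IPTG, 0.2% rhamnose), in six replicate transformations. Pooled colonies were amplicon-sequenced on Illumina HiSeq 2500. DiMSum fitness is the error-weighted combination of wild-type-normalised replicate fold changes, kanamycin versus none.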

| Sequence | self-splicing fitness (ln) (30 °C) | self-splicing fitness (ln) (37 °C) |
| --- | --- | --- |
| UACCAGCAAUAUUACGACAG | -1.2 ± 0.056 | -0.278 ± 0.076 |
| AAGCAGCAAUAUUACGGCGA | -0.328 ± 0.075 | 0.355 ± 0.094 |
| UAGAAGCAAUAUUACGUAGU | -3.71 ± 0.25 | -2.01 ± 0.22 |
| AAGGAGCAAUAUUACGAGUG |  | -2.2 ± 0.4 |
| UACAAGCAAUAUUACGGUUU | -1.86 ± 0.093 | -0.738 ± 0.095 |
| GCAGAGCAAUAUUACGUGCU | -3.24 ± 0.15 | -2.73 ± 0.22 |
| ACACAGCAAUAUUACGCGAU | -3.11 ± 0.11 | -2.02 ± 0.11 |
| AGAUAGCAAUAUUACGAGUA | -1.76 ± 0.3 | -1.33 ± 0.2 |
| AGGGAGCAAUAUUACGGUAC | -2.99 ± 0.31 | -2.67 ± 0.3 |
| GUGUAGCAAUAUUACGCCGU | -1.25 ± 0.17 | -1.67 ± 0.36 |
| GUGGAGCAAUAUUACGCUUG | -1.21 ± 0.16 | -1.25 ± 0.21 |
| CAGAAGCAAUAUUACGUUAC |  | -2.72 ± 0.2 |
| GAUAAGCAAUAUUACGGCCA | -1.15 ± 0.18 | 0.818 ± 0.17 |
| UCUUAGCAAUAUUACGCAGG | -3.45 ± 0.43 | -1.75 ± 0.38 |
| ACCCAGCAAUAUUACGGGAU | -2.6 ± 0.085 | -1.01 ± 0.076 |
| ACUUAGCAAUAUUACGCAGG | -2.19 ± 0.13 | -1.79 ± 0.15 |
| GAGCAGCAAUAUUACGUGUU | -3.3 ± 0.33 | -2.81 ± 0.22 |
| CACCAGCAAUAUUACGCCUA | -2.37 ± 0.16 | -1.52 ± 0.17 |
| UCCGAGCAAUAUUACGGGGC | -4.28 ± 0.23 | -2.8 ± 0.17 |

| Sequence | self-splicing fitness (ln) (30 °C) | self-splicing fitness (ln) (37 °C) |
| --- | --- | --- |
| CAGAAGCAAUAUUACGGAAA |  | -2.45 ± 0.36 |
| UCCAAGCAAUAUUACGGCCC |  | -1.45 ± 0.32 |
| UUCAAGCAAUAUUACGUAUA | -1.48 ± 0.1 | -0.136 ± 0.096 |
| AAUGAGCAAUAUUACGGGAC | -2.96 ± 0.26 | -1.36 ± 0.25 |
| CAGCAGCAAUAUUACGCCUG | -3.7 ± 0.22 | -2.35 ± 0.21 |
| CUAAAGCAAUAUUACGAUCA | -2.12 ± 0.18 | -0.711 ± 0.22 |
| CCCAAGCAAUAUUACGAUAG | -2.95 ± 0.16 | -2.54 ± 0.22 |
| CCUUAGCAAUAUUACGAAUG | -1.27 ± 0.11 | -0.423 ± 0.1 |
| AUCUAGCAAUAUUACGUUUC | -2.64 ± 0.35 | -2.9 ± 0.47 |
| UGAAAGCAAUAUUACGAGCU | -1.42 ± 0.14 | -0.746 ± 0.17 |
| CGGAAGCAAUAUUACGCAGG | -1.73 ± 0.095 | -1.57 ± 0.11 |
| CUGCAGCAAUAUUACGUUAA | -3.5 ± 0.24 | -3.02 ± 0.27 |
| CGGCAGCAAUAUUACGAUGA | -1.21 ± 0.095 | -1.21 ± 0.12 |
| GUCUAGCAAUAUUACGGGUC | -2.14 ± 0.2 | -1.67 ± 0.17 |
| UGCGAGCAAUAUUACGAACU | -1.88 ± 0.11 | 0.0543 ± 0.09 |
| UGCGAGCAAUAUUACGUUUG | -3.45 ± 0.21 | -2.88 ± 0.21 |
| GGCUAGCAAUAUUACGUGGU | -3.18 ± 0.23 | -2.13 ± 0.24 |
| GCUCAGCAAUAUUACGCACG | -3.19 ± 0.31 | -1.02 ± 0.24 |
| CCAUAGCAAUAUUACGGGUG | -1 ± 0.06 | -1.48 ± 0.078 |
